Paper doi:10.1101/2020.05.26.111013

Target: PelX^C232S (Pseudomonas protegens Pf-5)
Assay: SEC

Question: With PelX^C232S (enzyme) as the substance, how does the stoichiometry N read?
Answer: Its stoichiometry N is 2.
